Laboratory results as given in PMC3784511.
pKd: −log10 of the molar value.

Target: T1, NF-kB p50 homodimer (UniProt P19838)
T1 sequence: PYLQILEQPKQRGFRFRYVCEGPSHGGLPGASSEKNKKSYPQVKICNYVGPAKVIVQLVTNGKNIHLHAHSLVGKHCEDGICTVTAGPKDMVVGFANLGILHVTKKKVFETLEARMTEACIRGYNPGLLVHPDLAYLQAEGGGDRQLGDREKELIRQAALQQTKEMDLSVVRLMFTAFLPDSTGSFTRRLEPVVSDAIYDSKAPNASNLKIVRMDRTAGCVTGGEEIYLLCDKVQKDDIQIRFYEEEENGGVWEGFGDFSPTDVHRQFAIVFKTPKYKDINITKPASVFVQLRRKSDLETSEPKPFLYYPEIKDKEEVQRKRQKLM
Assay: UV laser footprinting
Conditions: 10 mM Tris pH 7.4, 75 mM NaCl, 1 mM EDTA, 1 mM DTT, 100 ug/ml BSA, 0.01% NP40 (omitted in dilution experiments), 5% glycerol, 37 C; naked DNA supplemented with …

Sequence: GCTCGGAATTCTATCCGACTGGCACCGGCAAGGTCGCTGTTCAATACATGCACAGGATGTATATATCTGACACGTGCCTGGAGACTAGGTAGTAATTCTCTTGGCGGTTAAAACGCGGTGTACAGCGCGTACGTGCGTTTAAGCGGTGCTAGAGCTTGCTACGACCAATTGAGCGGCCTCGGCACGGGGATTCCCCAGGTCGGCCGCGTATAGTGTCCATCACATAAGTGATGAACTCGGTCTTAAGAATCATGC (double strand) [601_D7 DNA (255 bp)]
- pKd: 7.85
